The supplement of paper PMC9233669
Variants at the floor of the assay were thinned out.

Experiments:
biotinyl-Trp-oxazolone = experiment: self-aminoacylation, catalytic enhancement (BWO) (fold over background); higher = more active; k-Seq, kA / k0A0; sequences stand for … in GGGAAUGGAUCCACAUCUACGAAUUC…UUCACUGCAGACUUGACGAAGCUG
Outline: (§1)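 The uncatalyzed rate is the low-activity peak of a bimodal Gaussian fit, and catalytic enhancement is median kA divided by it. The kA values came from pseudo-first-order fits, with 1000 bootstraps, of per-sequence fraction reacted measured by streptavidin capture, triplicate qPCR and Illumina sequencing. Mutagenized RNA pools with a 21-nt variable region (0.43 μM) were reacted with each biotinyl-aminoacyl-oxazolone at 2–1250 μM in 50 μL HEPES/NaCl/KCl/MgCl2/CaCl2 buffer with 5% acetonitrile, pH 6.9–7.0, for 90 minutes at room temperature.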

biotinyl-Phe-oxazolone = experiment: self-aminoacylation, catalytic enhancement (BFO) (fold over background); higher = more active; k-Seq, kA / k0A0; sequences stand for … in GGGAAUGGAUCCACAUCUACGAAUUC…UUCACUGCAGACUUGACGAAGCUG
Outline: as §1

biotinyl-Ile-oxazolone = experiment: self-aminoacylation, catalytic enhancement (BIO) (fold over background); higher = more active; k-Seq, kA / k0A0; sequences stand for … in GGGAAUGGAUCCACAUCUACGAAUUC…UUCACUGCAGACUUGACGAAGCUG
Outline: as §1

biotinyl-Val-oxazolone = experiment: self-aminoacylation, catalytic enhancement (BVO) (fold over background); higher = more active; k-Seq, kA / k0A0; sequences stand for … in GGGAAUGGAUCCACAUCUACGAAUUC…UUCACUGCAGACUUGACGAAGCUG
Outline: as §1

biotinyl-Leu-oxazolone = experiment: self-aminoacylation, catalytic enhancement (BLO) (fold over background); higher = more active; k-Seq, kA / k0A0; sequences stand for … in GGGAAUGGAUCCACAUCUACGAAUUC…UUCACUGCAGACUUGACGAAGCUG
Outline: as §1

biotinyl-Met-oxazolone = experiment: self-aminoacylation, catalytic enhancement (BMO) (fold over background); higher = more active; k-Seq, kA / k0A0; sequences stand for … in GGGAAUGGAUCCACAUCUACGAAUUC…UUCACUGCAGACUUGACGAAGCUG
Outline: as §1

Sequence | self-aminoacylation (biotinyl-Trp-oxazolone) | self-aminoacylation (biotinyl-Phe-oxazolone) | self-aminoacylation (biotinyl-Ile-oxazolone) | self-aminoacylation (biotinyl-Val-oxazolone) | self-aminoacylation (biotinyl-Leu-oxazolone) | self-aminoacylation (biotinyl-Met-oxazolone)
AAGAUUGCUCAUAGUCGCAAG [Fam3.1 aminoacylation ribozyme variant] | 2.09 | 1.91 | 1.45 | 1.62 | 1.95 | 1.56
AAGCUUGCGAAUAGUCGCAAG [Fam3.1 aminoacylation ribozyme variant] | 2.32 | 2.7 | 2.39 | 1.64 | 2.2 | 2.12
AAGCUUGCUAAUACUCGCAAG [Fam3.1 aminoacylation ribozyme variant] | 1.98 | 1.31 | 1.5 | 1.26 | 0.856 | 0.693
AAGCUUGCUAAUAGUAGCAAG [Fam3.1 aminoacylation ribozyme variant] | 2.48 | 2.27 | 1.39 | 1.3 | 1.55 | 1.08
AAGCUUGCUAAUAGUCGCACG [Fam3.1 aminoacylation ribozyme variant] | 1.33 | 4.41 | 1.81 | 1.76 | 1.6 | 1.29
AAGCUUGCUAAUAGUCGCGAG [Fam3.1 aminoacylation ribozyme variant] | 3.85 | 26.9 | 2.66 | 1.9 | 2.66 | 3.36
AAGCUUGCUAAUAGUCGGAAG [Fam3.1 aminoacylation ribozyme variant] | 1.65 | 3.45 | 1.48 | 1.3 | 1.21 | 1.34
AAGCUUGCUAAUGGUCGCAAG [Fam3.1 aminoacylation ribozyme variant] | 3.95 | 2.3 | 1.77 | 1.76 | 1.83 | 2.83
AAGCUUUCUAAUAGUCGCAAG [Fam3.1 aminoacylation ribozyme variant] | 1.93 | 3.08 | 2.02 | 1.71 | 1.81 | 1.44
AAGGCUGCUAAUAGUCGCAAG [Fam3.1 aminoacylation ribozyme variant] | 7.19 | 20 | 1.73 | 1.38 | 1.64 | 2.04
AAGGUGGCUAAUAGUCGCAAG [Fam3.1 aminoacylation ribozyme variant] | 1.95 | 1.82 | 1.63 | 1.41 | 1.74 | 1.65
AAGGUUGCUAAAAGUCGCAAG [Fam3.1 aminoacylation ribozyme variant] | 1.93 | 4.28 | 1.62 | 1.67 | 1.6 | 1.52
AAGGUUGCUAACAGUCGCAAG [Fam3.1 aminoacylation ribozyme variant] | 1.65 | 3.97 | 1.33 | 1.11 | 1.83 | 1.06
AAGGUUGCUAAUAGUCACAAG [Fam3.1 aminoacylation ribozyme variant] | 1.72 | 4.71 | 1.71 | 1.32 | 1.57 | 1.72
AAGUAAGCUAAUAGUCGCAAG [Fam3.1 aminoacylation ribozyme variant] | 1.5 | 2.82 | 1.55 | 1.33 | 1.43 | 1.18
AAGUAUGCGAAUAGUCGCAAG [Fam3.1 aminoacylation ribozyme variant] | 0.948 | 1.74 | 1.32 | 1 | 1.19 | 1.13
AAGUAUGCUAAUAGACGCAAG [Fam3.1 aminoacylation ribozyme variant] | 0.756 | 1.04 | 0.823 | 0.637 | 0.725 | 0.824
AAGUAUGCUAAUAGUAGCAAG [Fam3.1 aminoacylation ribozyme variant] | 0.882 | 1.46 | 1.53 | 1.46 | 1.54 | 1.22
AAGUAUGCUAAUAGUCGCAGG [Fam3.1 aminoacylation ribozyme variant] | 1.2 | 2.31 | 1.44 | 1.48 | 1.46 | 1.37
AAGUAUGCUAAUAGUCGGAAG [Fam3.1 aminoacylation ribozyme variant] | 4.24 | 11.1 | 1.64 | 1.29 | 1.42 | 1.72
AAGUAUGCUAAUAGUUGCAAG [Fam3.1 aminoacylation ribozyme variant] | 1.73 | 2.31 | 1.44 | 1.38 | 1.11 | 1.71
AAGUAUGCUAAUAUUCGCAAG [Fam3.1 aminoacylation ribozyme variant] | 2.45 | 1.45 | 1.95 | 1.46 | 2.04 | 1.76
AAGUAUGUUAAUAGUCGCAAG [Fam3.1 aminoacylation ribozyme variant] | 1.38 | 1.49 | 1.44 | 1.24 | 1.44 | 1.4
AAGUCUGCUAAUAGUCUCAAG [Fam3.1 aminoacylation ribozyme variant] | 4.59 | 19.4 | 1.14 | 1.2 | 1.43 | 1.76
AAGUCUGCUAAUAUUCGCAAG [Fam3.1 aminoacylation ribozyme variant] | 1.77 | 2.54 | 1.11 | 1.06 | 1.06 | 1.49
AAGUCUGCUACUAGUCGCAAG [Fam3.1 aminoacylation ribozyme variant] | 0.731 | 0.846 | 0.699 | 0.84 | 1.15 | 0.856

Sequence | self-aminoacylation (biotinyl-Trp-oxazolone) | self-aminoacylation (biotinyl-Phe-oxazolone) | self-aminoacylation (biotinyl-Ile-oxazolone) | self-aminoacylation (biotinyl-Val-oxazolone) | self-aminoacylation (biotinyl-Leu-oxazolone) | self-aminoacylation (biotinyl-Met-oxazolone)
AAGUCUGGUAAUAGUCGCAAG [Fam3.1 aminoacylation ribozyme variant] | 0.868 | 2.18 | 1.17 | 0.918 | 0.903 | 1.16
AAGUGGGCUAAUAGUCGCAAG [Fam3.1 aminoacylation ribozyme variant] | 1.73 | 2.27 | 1.6 | 1.32 | 1.44 | 1.56
AAGUGUGCUAAUAGUCGCAAG [Fam3.1 aminoacylation ribozyme variant] | 6.71 | 21.7 | 1.56 | 1.36 | 1.36 | 1.69
AAGUGUGCUACUAGUCGCAAG [Fam3.1 aminoacylation ribozyme variant] | 1.41 | 1.71 | 1.29 | 1.04 | 0.938 | 1.33
AAGUUACCUAAUAGUCGCAAG [Fam3.1 aminoacylation ribozyme variant] | 1.74 | 2.52 | 1.25 | 1.4 | 1.39 | 1.44
AAGUUAGCAAAUAGUCGCAAG [Fam3.1 aminoacylation ribozyme variant] | 1.36 | 2.37 | 1.42 | 1.23 | 1.32 | 1.44
AAGUUAGCUAAUAGUCGCAAA [Fam3.1 aminoacylation ribozyme variant] | 1.06 | 2.51 | 2.01 | 1.39 | 1.64 | 1.47
AAGUUAGCUCAUAGUCGCAAG [Fam3.1 aminoacylation ribozyme variant] | 1.81 | 3.16 | 1.85 | 1.61 | 2.45 | 1.88
AAGUUCCCUAAUAGUCGCAAG [Fam3.1 aminoacylation ribozyme variant] | 0.613 | 0.485 | 1.12 | 0.992 | 0.965 | 0.931
AAGUUCGCUAAAAGUCGCAAG [Fam3.1 aminoacylation ribozyme variant] | 3.39 | 4.4 | 2.42 | 1.67 | 2.68 | 2.51
AAGUUCGCUAAUAGGCGCAAG [Fam3.1 aminoacylation ribozyme variant] | 1.2 | 1.58 | 1.23 | 1.16 | 1.03 | 0.965
AAGUUCGCUAAUAGUAGCAAG [Fam3.1 aminoacylation ribozyme variant] | 1.24 | 3.5 | 1.67 | 1.26 | 1.28 | 1.55
AAGUUCGCUAAUAGUCGCAAG [Fam3.1 aminoacylation ribozyme variant] | 2.94 | 6.36 | 2.04 | 1.81 | 1.94 | 1.91
AAGUUCGCUAAUAGUCGCAGG [Fam3.1 aminoacylation ribozyme variant] | 2.2 | 2.51 | 2.54 | 1.89 | 3.87 | 2.87
AAGUUCGCUAAUAGUCGGAAG [Fam3.1 aminoacylation ribozyme variant] | 1.07 | 2.48 | 1.2 | 0.743 | 1.17 | 0.621
AAGUUCGCUACUAGUCGCAAG [Fam3.1 aminoacylation ribozyme variant] | 1.34 | 2.28 | 2.08 | 1.79 | 1.5 | 1.67
AAGUUCGCUUAUAGUCGCAAG [Fam3.1 aminoacylation ribozyme variant] | 2.23 | 1.99 | 1.86 | 1.5 | 1.84 | 2.03
AAGUUCGUUAAUAGUCGCAAG [Fam3.1 aminoacylation ribozyme variant] | 1.56 | 3.09 | 1.93 | 1.53 | 1.94 | 1.77
AAGUUGACUAAUAGUCGCAAG [Fam3.1 aminoacylation ribozyme variant] | 1.19 | 1.5 | 1.18 | 0.949 | 0.935 | 0.839
AAGUUGGCUAAGAGUCGCAAG [Fam3.1 aminoacylation ribozyme variant] | 2.13 | 1.91 | 2.02 | 1.53 | 1.98 | 1.68
AAGUUGGCUAAUACUCGCAAG [Fam3.1 aminoacylation ribozyme variant] | 1.45 | 1.44 | 1.39 | 1.39 | 0.979 | 1.2
AAGUUGGCUAAUAGUGGCAAG [Fam3.1 aminoacylation ribozyme variant] | 1.13 | 0.667 | 0.654 | 0.731 | 0.655 | 0.931
AAGUUGGCUAAUCGUCGCAAG [Fam3.1 aminoacylation ribozyme variant] | 2.24 | 2.73 | 1.76 | 1.51 | 1.75 | 1.68
AAGUUGGCUGAUAGUCGCAAG [Fam3.1 aminoacylation ribozyme variant] | 1.86 | 2.34 | 1.8 | 1.7 | 1.55 | 1.49
AAGUUGGCUUAUAGUCGCAAG [Fam3.1 aminoacylation ribozyme variant] | 1.7 | 2.35 | 1.59 | 1.61 | 1.64 | 1.94
